Data as given in US20240116985A1 (published 2024).
Starred links: 1 amine or outer side, 2 acyl side, 3 side chain; linkers in the order of their positions; H or OH if unused. Positions of bridges follow the written chain, without caps; N, C: chain ends. Non-standard residues stand in square brackets, D forms with d. Primed or numbered codes have the meaning given here. RdN(3) = (R)-4-(((allyloxy)carbonyl)(methyl)amino)-2-amino-2-methylbutanoic acid, stapling residue, C=CCOC(=O)N(C)CC[C@@](C)(N[*:1])C(=O)[*:2]; RdN″ = (R)-4-(((allyloxy)carbonyl)(methyl)amino)-2-amino-2-methylbutanoic acid (stapling residue), C=CCOC(=O)N(C)CC[C@@](C)(N[*:1])C(=O)[*:2]; B5(16) = 2-amino-2-(pent-4-en-1-yl)hept-6-enoic acid = 2,2-bis(4-pentenyl)glycine (stitching residue), C=CCCCC(CCCC=C)(N[*:1])C(=O)[*:2]; B5(4) = 2,2-bis(4-pentenyl)glycine = 2-amino-2-(pent-4-en-1-yl)hept-6-enoic acid (stitching residue), C=CCCCC(CCCC=C)(N[*:1])C(=O)[*:2]; B5(5) = 2,2-bis(4-pentenyl)glycine, 2-amino-2-(pent-4-en-1-yl)hept-6-enoic acid (stitching residue), C=CCCCC(CCCC=C)(N[*:1])C(=O)[*:2]; RdN = (R)-4-(((allyloxy)carbonyl)(methyl)amino)-2-amino-2-methylbutanoic acid, C=CCOC(=O)N(C)CC[C@@](C)(N[*:1])C(=O)[*:2]; B5(9) = 2-amino-2-(pent-4-en-1-yl)hept-6-enoic acid (2,2-bis(4-pentenyl)glycine), C=CCCCC(CCCC=C)(N[*:1])C(=O)[*:2]; B5(19) = 2-amino-2-(pent-4-en-1-yl)hept-6-enoic acid (bis(4-pentenyl)glycine), C=CCCCC(CCCC=C)(N[*:1])C(=O)[*:2]; EtGA = (S)-2-amino-3-((carboxymethyl)(ethyl)amino)propanoic acid, CCN(CC(=O)[*:3])C[C@H](N[*:1])C(=O)[*:2]; B5″ = 2,2-bis(4-pentenyl)glycine, stitching residue, C=CCCCC(CCCC=C)(N[*:1])C(=O)[*:2]; B5 = 2-amino-2-(pent-4-en-1-yl)hept-6-enoic acid, C=CCCCC(CCCC=C)(N[*:1])C(=O)[*:2]; Trp(7-F) = N[C@@H](Cc1c[nH]c2c(F)cccc12)C(=O)O; S7 = C[C@@](CCCCCC=[*:3])(N[*:1])C(=O)[*:2]; d(βAsp) = O=C(O)[C@@H](CC(=O)[*:2])N[*:1]; Bta = N[C@@H](Cc1csc2ccccc12)C(=O)O; αAllylPro = C=CC[C@@]1(C(=O)O)CCCN1; S8 = C=CCCCCCC[C@](C)(N)C(=O)O; NMeS = CN[C@@H](CO)C(=O)O; Aib = CC(C)(N)C(=O)O

B1: I-144 (peptide)
peptide: Ac-[αAllylPro]DA[B5(4)]DEAAFV[S8]F[Bta]Q-NH2
modifications: staple 1-4, 4-11
notes: also called Ac-PL3-Asp-Ala-B5-Asp-Glu-Ala-Ala-Phe-Val-S8-Phe-BztA-Gln-NH2
B2: I-147 (peptide)
peptide: Ac-[Aib]DI[RdN]DEAAFQ[S7]FW-NH2
modifications: staple 4-11
notes: also called Ac-Aib-Asp-Ile-RdN-Asp-Glu-Ala-Ala-Phe-Gln-S7-Phe-Trp-NH2
B3: I-148 (peptide)
peptide: Ac-ADI[RdN″]DEAAFQ[S7]FW-NH2
modifications: staple 4-11
notes: also called Ac-Ala-Asp-Ile-RdN-Asp-Glu-Ala-Ala-Phe-Gln-S7-Phe-Trp-NH2
B4: I-154 (peptide)
peptide: ADIXDEAAFAXFWA
modifications: not fully specified; N-terminal acetyl (Ac); RdN at 4 and S7 at 11 (staple RdN-S7 by olefin metathesis); C-terminal amide (NH2)
notes: also called Ac-Ala-Asp-Ile-RdN-Asp-Glu-Ala-Ala-Phe-Ala-S7-Phe-Trp-Ala-NH2
B5: I-152 (peptide)
peptide: Ac-ADI[RdN″]DEAAFA[S7]FWH-NH2
modifications: staple 4-11
notes: also called Ac-Ala-Asp-Ile-RdN-Asp-Glu-Ala-Ala-Phe-Ala-S7-Phe-Trp-His-NH2
B6: I-153 (peptide)
peptide: Ac-ADI[RdN(3)]DEAAFQ[S7]FWA-NH2
modifications: staple 4-11
notes: also called Ac-Ala-Asp-Ile-RdN-Asp-Glu-Ala-Ala-Phe-Gln-S7-Phe-Trp-Ala-NH2
B7: I-155 (peptide)
peptide: ADIXDEAAFAXFWA
modifications: not fully specified; N-terminal acetyl (Ac); RdN at 4 and S7 at 11 (staple RdN-S7 by olefin metathesis); C-terminal amide (NH2)
notes: as for B4
B8: I-166 (peptide)
peptide: Ac-[αAllylPro]DA[B5(16)]DEAAFV[S8]F[Trp(7-F)]Q-NH2
modifications: staple 1-4, 4-11
notes: also called Ac-PL3-Asp-Ala-B5-Asp-Glu-Ala-Ala-Phe-Val-S8-Phe-7FW-Gln-NH2
B9: I-172 (peptide)
peptide: Ac-[αAllylPro]DA[B5(4)]D[EtGA]AAFV[S8]FWQ-NH2
modifications: staple 1-4, 4-11; not fully specified
notes: also called Ac-PL3-Asp-Ala-B5-Asp-EtGA-Ala-Ala-Phe-Val-S8-Phe-Trp-Gln-NH2
B10: I-173 (peptide)
peptide: Ac-[αAllylPro]DA[B5]D[EtGA]AAFV[S8]FWQ-NH2
modifications: staple 1-4, 4-11; not fully specified
notes: as for B9
B11: I-174 (peptide)
peptide: Ac-[αAllylPro]DI[B5(5)]DDAAFQ[S8]FWH-NH2
modifications: staple 1-4, 4-11
notes: also called Ac-PL3-Asp-Ile-B5-Asp-Asp-Ala-Ala-Phe-Gln-S8-Phe-Trp-His-NH2
B12: I-176 (peptide)
peptide: Ac-[αAllylPro]DI[B5(5)]DEAAFV[S8]FWH-NH2
modifications: staple 1-4, 4-11
notes: also called Ac-PL3-Asp-Ile-B5-Asp-Glu-Ala-Ala-Phe-Val-S8-Phe-Trp-His-NH2
B13: I-178 (peptide)
peptide: Ac-[αAllylPro]DA[B5(19)]DEAAFQ[S8]FWH-NH2
modifications: staple 1-4, 4-11
notes: also called Ac-PL3-Asp-Ala-B5-Asp-Glu-Ala-Ala-Phe-Gln-S8-Phe-Trp-His-NH2
B14: I-180 (peptide)
peptide: XDIXDEAAFQXFWQ
modifications: not fully specified; N-terminal acetyl (Ac); PL3 at 1, B5 at 4, S8 at 11 (staples PL3-B5 and B5-S8 by olefin metathesis); C-terminal amide (NH2)
notes: also called Ac-PL3-Asp-Ile-B5-Asp-Glu-Ala-Ala-Phe-Gln-S8-Phe-Trp-Gln-NH2

target: T1, full-length beta-Catenin (Uniprot ID P35222) (Homo sapiens (Human), UniProt P35222 2-781); assay: fluorescence polarization competition; full-length beta-catenin, competitor 5FAM-TCF4(10-53) probe
T1 construct: Also used here for the endogenous beta-catenin of the DLD1 TCF reporter cells; also called bCat; B-Catenin
T1 sequence: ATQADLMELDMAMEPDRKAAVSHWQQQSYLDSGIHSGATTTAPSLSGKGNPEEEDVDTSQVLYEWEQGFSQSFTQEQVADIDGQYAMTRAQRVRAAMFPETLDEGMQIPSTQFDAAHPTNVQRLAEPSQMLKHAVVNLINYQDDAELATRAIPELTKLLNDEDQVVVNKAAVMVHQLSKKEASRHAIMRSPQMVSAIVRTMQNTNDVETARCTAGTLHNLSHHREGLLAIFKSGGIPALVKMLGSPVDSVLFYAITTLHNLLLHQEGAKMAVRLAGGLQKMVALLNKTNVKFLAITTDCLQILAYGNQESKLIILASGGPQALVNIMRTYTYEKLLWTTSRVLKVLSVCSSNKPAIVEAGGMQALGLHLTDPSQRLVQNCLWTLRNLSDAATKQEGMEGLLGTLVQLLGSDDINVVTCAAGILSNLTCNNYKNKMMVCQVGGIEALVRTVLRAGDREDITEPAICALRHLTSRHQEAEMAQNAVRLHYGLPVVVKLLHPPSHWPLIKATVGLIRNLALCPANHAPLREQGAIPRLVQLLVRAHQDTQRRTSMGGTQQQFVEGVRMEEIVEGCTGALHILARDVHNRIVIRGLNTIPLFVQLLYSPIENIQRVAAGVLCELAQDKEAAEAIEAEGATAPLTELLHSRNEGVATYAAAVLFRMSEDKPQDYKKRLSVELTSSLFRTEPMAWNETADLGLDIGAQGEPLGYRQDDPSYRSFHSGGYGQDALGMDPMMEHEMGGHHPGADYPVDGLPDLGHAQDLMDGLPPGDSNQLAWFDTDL
In short: (§1)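 Fluorescence polarization was read in duplicate after the plate sat 60 minutes at 20° C. shielded from light. Values come from fitting to a 1:1 binding model with hill slope.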

Binder | EC50
Ac-[αAllylPro]DL[B5″]DEAAFN[S8]F[Bta][NMeS]-NH2 (staple 1-4, 4-11, Stapled peptide composition) [I-760] | 608 nM

target: T2, full-length beta-Catenin (Uniprot ID P35222) (Homo sapiens (Human), UniProt P35222 1-781); assay: as above
T2 construct: The assay protocol says 'full-length beta-Catenin (Uniprot ID P35222)'; also called bCat; B-Catenin
T2 sequence: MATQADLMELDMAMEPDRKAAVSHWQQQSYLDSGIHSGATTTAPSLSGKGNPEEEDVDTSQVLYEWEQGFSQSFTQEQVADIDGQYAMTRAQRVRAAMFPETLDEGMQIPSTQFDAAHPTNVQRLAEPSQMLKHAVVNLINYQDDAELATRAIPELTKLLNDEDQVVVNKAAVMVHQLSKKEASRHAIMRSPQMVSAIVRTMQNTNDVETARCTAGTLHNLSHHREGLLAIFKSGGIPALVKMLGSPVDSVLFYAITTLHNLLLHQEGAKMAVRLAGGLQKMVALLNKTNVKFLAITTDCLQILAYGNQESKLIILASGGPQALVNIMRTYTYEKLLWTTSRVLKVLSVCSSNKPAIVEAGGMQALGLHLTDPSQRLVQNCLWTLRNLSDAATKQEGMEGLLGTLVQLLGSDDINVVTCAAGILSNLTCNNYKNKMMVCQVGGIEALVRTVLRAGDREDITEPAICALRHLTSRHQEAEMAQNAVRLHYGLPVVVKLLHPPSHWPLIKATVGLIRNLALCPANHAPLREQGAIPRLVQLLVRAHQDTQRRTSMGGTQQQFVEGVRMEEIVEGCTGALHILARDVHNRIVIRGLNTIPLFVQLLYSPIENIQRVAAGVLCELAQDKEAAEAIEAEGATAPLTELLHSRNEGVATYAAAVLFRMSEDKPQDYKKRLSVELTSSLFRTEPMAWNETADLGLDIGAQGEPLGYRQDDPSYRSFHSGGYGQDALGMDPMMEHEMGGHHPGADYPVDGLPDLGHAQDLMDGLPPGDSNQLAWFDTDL
In short: as §1

Binder | IC50
B1 | 146 nM
B2 | 1640 nM
B3 | 2770 nM
B4 | 5000 nM
B5 | 5000 nM
B6 | 2140 nM
B7 | 5000 nM
B8 | 2160 nM
B9 | 5000 nM
B10 | 3120 nM
B11 | 1760 nM
B12 | 1990 nM
B13 | 1630 nM
B14 | 56 nM

target: T3, full-length beta-Catenin (Uniprot ID P35222) (Homo sapiens (Human), UniProt P35222 1-781); assay: as above
T3 construct: also called bCat; B-Catenin
T3 sequence: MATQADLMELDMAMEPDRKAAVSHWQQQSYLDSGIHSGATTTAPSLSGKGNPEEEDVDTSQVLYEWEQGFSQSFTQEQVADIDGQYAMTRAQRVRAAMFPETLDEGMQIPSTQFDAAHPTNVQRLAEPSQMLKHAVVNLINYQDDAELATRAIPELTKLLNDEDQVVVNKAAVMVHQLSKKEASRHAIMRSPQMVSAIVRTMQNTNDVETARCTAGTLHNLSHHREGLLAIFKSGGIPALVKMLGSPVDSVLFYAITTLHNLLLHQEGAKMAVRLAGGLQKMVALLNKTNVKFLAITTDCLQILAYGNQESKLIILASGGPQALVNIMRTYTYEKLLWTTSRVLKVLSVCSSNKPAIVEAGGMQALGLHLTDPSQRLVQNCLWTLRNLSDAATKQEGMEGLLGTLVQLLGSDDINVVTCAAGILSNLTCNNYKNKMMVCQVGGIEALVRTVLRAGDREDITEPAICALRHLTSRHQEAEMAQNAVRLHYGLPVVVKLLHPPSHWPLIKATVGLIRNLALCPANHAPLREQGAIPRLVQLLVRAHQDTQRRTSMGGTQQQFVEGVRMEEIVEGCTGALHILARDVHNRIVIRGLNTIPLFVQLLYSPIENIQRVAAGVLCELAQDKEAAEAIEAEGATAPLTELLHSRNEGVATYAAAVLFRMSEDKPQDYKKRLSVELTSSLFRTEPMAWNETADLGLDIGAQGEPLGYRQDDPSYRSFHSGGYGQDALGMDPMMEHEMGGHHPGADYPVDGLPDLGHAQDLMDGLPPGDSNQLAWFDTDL
In short: as §1

Binder | IC50
Ac-[αAllylPro][d(βAsp)]I[B5(9)]DEAAFQ[S8]F[Bta]Q-NH2 (staple 1-4, 4-11, Stapled peptide) [I-668] | 675 nM
